Biological target: T1, elastase (type I: derived from porcine pancreas) (Sus scrofa, UniProt P00772)
T1 construct: type I: derived from porcine pancreas; purchased Sigma Aldrich, USA; host or cells: porcine pancreas (tissue-derived)
Assay: Elastase inhibition test (p-nitroanilide release, absorbance 410 nm)
Type: biochemical
Settings: peptides and controls 100 μg/mL; N-succinyl-(L-Ala) 3-p-nitroanilide substrate, 37 °C, 30 minutes
Method: In order to confirm the anti-wrinkle effect of tetrapeptides, a test of inhibiting elastase was performed. The amount of p-nitroanilide produced was measured using N-succinyl-(L-Aal) 3-p-nitroanilide as a substrate at 37 °C for 30 minutes. After adding each of the peptides to be tested and negative and positive controls in an amount of 100 μg/mL into test tube, respectively, a pancreatic solution (type I: derived from porcine pancreas, 0.6 unit/mL, Sigma Aldrich, USA) in an amount of […] was added thereto. Thereafter, a substrate, in which N-succinyl-(L-Ala) 3-p-nitroanilide (1 mg/mL) was dissolved in 50 mM Tris-HCl buffer (pH 8.6), was added in an amount of […] thereto and allowed to react for 30 minutes and the absorbance was measured at 410 nm using a microplate reader. The elastase inhibitory activity was expressed as a decrease rate in absorbance of the groups with and without the addition of the sample solution as shown in Equation 1 below.
After treating the 42 kinds of synthesized peptides, their effects on inhibition of elastase were measured.

T1 sequence (P00772 27-266): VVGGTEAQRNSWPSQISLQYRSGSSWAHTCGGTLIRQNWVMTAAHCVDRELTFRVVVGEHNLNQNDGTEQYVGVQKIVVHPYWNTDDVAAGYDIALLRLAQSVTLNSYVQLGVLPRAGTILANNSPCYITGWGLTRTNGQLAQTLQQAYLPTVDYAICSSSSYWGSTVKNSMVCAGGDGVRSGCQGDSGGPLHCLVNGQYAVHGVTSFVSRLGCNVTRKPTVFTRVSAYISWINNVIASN

Elastase Inhibition Rate(%)	Compound
28.8%	C[C@H]1[C@H](C)CC[C@]2(C(=O)O)CC[C@]3(C)C(=CC[C@@H]4[C@@]5(C)CCC(=O)C(C)(C)[C@@H]5CC[C@]43C)[C@H]12 [Ursonic acid, reference compound]
77.2%	CAPQ (Tetra Peptide) [Sample 14, tetrapeptide]
47.4%	CFSS (Tetra Peptide) [Sample 21, tetrapeptide]
118.4%	DCVK (Tetra Peptide) [Sample 5, tetrapeptide]
69.7%	EGQL (Tetra Peptide) [Sample 30, tetrapeptide]
66.3%	EHQE (Tetra Peptide) [Sample 29, tetrapeptide]
90.5%	ELPE (Tetra Peptide) [Sample 24, tetrapeptide]
53.6%	EQQE [25] (Tetra Peptide) [Sample 25, tetrapeptide]
64.2%	EQQE [37] (Tetra Peptide) [Sample 37, tetrapeptide]
49.5%	EVQW (Tetra Peptide) [Sample 42, tetrapeptide]
69.1%	FSSG (Tetra Peptide) [Sample 22, tetrapeptide]
55.2%	GCFS (Tetra Peptide) [Sample 20, tetrapeptide]
103.5%	GGSG [Sample 18]
34.5%	GQDP (Tetra Peptide) [Sample 34, tetrapeptide]
73.2%	GQLE (Tetra Peptide) [Sample 23, tetrapeptide]
56.0%	GQLK (Tetra Peptide) [Sample 27, tetrapeptide]
33.9%	GQVS (Tetra Peptide) [Sample 10, tetrapeptide]
56.3%	GSGY (Tetra Peptide) [Sample 9, tetrapeptide]
58.3%	GSSG (Tetra Peptide) [Sample 19, tetrapeptide]
78.5%	GYVS (Tetra Peptide) [Sample 11, tetrapeptide]
79.3%	KHLE (Tetra Peptide) [Sample 28, tetrapeptide]
44.5%	KTSG (Tetra Peptide) [Sample 7, tetrapeptide]

Elastase Inhibition Rate(%)	Compound
78.2%	LELP (Tetra Peptide) [Sample 26, tetrapeptide]
70.6%	LEVP (Tetra Peptide) [Sample 31, tetrapeptide]
79.4%	MSYQ (Tetra Peptide) [Sample 1, tetrapeptide]
64.0%	PEEQ (Tetra Peptide) [Sample 32, tetrapeptide]
72.5%	PPVD (Tetra Peptide) [Sample 4, tetrapeptide]
69.3%	PTPQ (Tetra Peptide) [Sample 3, tetrapeptide]
88.7%	QKKQ (Tetra Peptide) [Sample 2, tetrapeptide]
60.5%	QLKY (Tetra Peptide) [Sample 35, tetrapeptide]
55.6%	QMGQ (Tetra Peptide) [Sample 33, tetrapeptide]
63.5%	QPSY (Tetra Peptide) [Sample 15, tetrapeptide]
72.3%	QQKQ (Tetra Peptide) [Sample 41, tetrapeptide]
49.6%	SGGS (Tetra Peptide) [Sample 8, tetrapeptide]
49.3%	SQQV (Tetra Peptide) [Sample 12, tetrapeptide]
77.0%	SSGG (Tetra Peptide) [Sample 17, tetrapeptide]
59.3%	TKGE (Tetra Peptide) [Sample 38, tetrapeptide]
59.0%	TQTS (Tetra Peptide) [Sample 13, tetrapeptide]
55.7%	VEHQ (Tetra Peptide) [Sample 40, tetrapeptide]
66.3%	VKTS (Tetra Peptide) [Sample 6, tetrapeptide]
60.7%	VLLP (Tetra Peptide) [Sample 39, tetrapeptide]
67.1%	YGGG (Tetra Peptide) [Sample 16, tetrapeptide]
72.3%	YLEQ (Tetra Peptide) [Sample 36, tetrapeptide]
